Where “and” joins values, the source holds several entries; their conditions need not be identical. Identical values can stand only once.
B1: NF2 (merlin) isoform 7, human, full length (507 aa, lacks exons 2-3 = isoform-1 residues 39-121; exon-16 C-terminus), P35240-4 (parent)
chain: MAGAIASRMSFSSLKRKQPKTFTVRIVTMDAEMEFNCEVKKQILDEKIYCPPEASVLLASYAVQAKYGDYDPSVHKRGFLAQEELLPKRVINLYQMTPEMWEERITAWYAEHRGRARDEAEMEYLKIAQDLEMYGVNYFAIRNKKGTELLLGVDALGLHIYDPENRLTPKISFPWNEIRNISYSDKEFTIKPLDKKIDVFKFNSSKLRVNKLILQLCIGNHDLFMRRRKADSLEVQQMKAQAREEKARKQMERQRLAREKQMREEAERTRDELERRLLQMKEEATMANEALMRSEETADLLAEKAQITEEEAKLLAQKAAEAEQEMQRIKATAIRTEEEKRLMEQKVLEAEVLALKMAEESERRAKEADQLKQDLQEAREAERRAKQKLLEIATKPTYPPMNPIPAPLPPDIPSFNLIGDSLSFDFKDTDMKRLSMEIEKEKVEYMEKSKHLQEQLNELKTEIEALKLKERETALDILHNENSDRGGSSKHNTIKKPQAQGRRPICI

Variants of: B1
Experiment: reverse yeast two-hybrid deep mutational scan (rY2H-seq): NF2 isoform 7 mutant library as bait mated with wild-type prey strains; selection on medium lacking adenine for non-interacting pairs; NextSeq paired-end sequencing; enrichment vs …
Settings: with PIK3R3 (phosphatidylinositol 3-kinase regulatory subunit gamma), Q92569; yeast diploids after mating (RBait_S3 x RPrey_S3), 30 °C, selection for reporter genes on NB agar; human tyrosine kinase ABL2 co-expressed as the active kinase …; HIGHER = WEAKER BINDING (the opposite of display enrichments): higher = stronger loss of interaction: reverse Y2H selects yeast in which bait and prey do NOT interact (growth without adenine), so a …; hits-only table; scale: rY2H score; numbering: uniprot, sequence starts at 1

Variant | enrichment
L353P | 1.53
L149P | 2.48
E234K | 1.73
G146R | 1.52
T336E | 3.42
A155T | 2.16
M357E | 2.86
F173T | 11
F173P | 13
L212P | 2.57
S294V | 1.71
S294F | 2.27
M225I | 2.15
R89G | 1.41
L14P | 3.46
M133I | 2.1
S55K | 35.5
D71T | 11.1
R166K | 2.44
R166C | 1.57
E339G | 2.91
A62K | 2.93

Variant | enrichment
N176M | 1.43
V63K | 2
M280I | 2.64
A140V | 2.13
I141C | 1.42
A287E | 2.8
S73A | 4.51
V24A | 2.39
K191S | 2.28
I171L | 1.51
G68V | 7.34
L216P | 3.07
L207G | 1.42
K346N | 2.36
A365G | 2.6
D194N | 1.96
P52A | 1.76
V352K | 2.67
T147A | 5.43
L348A | 2.29
A368L | 2.18

More lines, now with the values ahead:

enrichment | Variant
2.91 | M401Q
2.62 | T493A
4.88 | P396K
2.29 | G486S
1.97 | Q498E
6.26 | R485K
1.83 | F415E
2.39 | D484E
1.98 | T394S
13.6 | E458L
3.32 | K388E

Same assay, conditions: with NF2 C-terminal domain (wild type; homomeric NF2-NF2 interaction), P35240; yeast diploids after mating (RBait_S3 x RPrey_S3), 30 °C, selection for reporter genes on NB agar; human ABL2 co-expressed as the kinase-dead K35M mutant …; HIGHER = WEAKER BINDING (the opposite of display enrichments): higher = stronger loss of interaction: reverse Y2H selects yeast in which bait and prey do NOT interact (growth without adenine), so a …; hits-only table; partner unresolved; scale: rY2H score; numbering: uniprot, sequence starts at 1

Variant | enrichment
A302K | 1.89
P19E | 3.9
D69L | 1.7
E132L | 1.84
Q261E | 1.7
R248L | 2.23
K126L | 1.8 and 2.78
Q236A | 2.27
A358E | 2.37
A287E | 3.57 and 6.74
L348A | 4.71

Other lines, results leading:

enrichment | Variant
2.58 | S423L
2.15 | S489K
2.15 | K395S
2.15 | A378L
3.26 | E380K
2.32 | L417T
5.78 | Q376A
1.92 | D476G
4.46 | H479A
1.37 | L408C
2.37 | F415E
1.63 | E377L
27.7 | F424E
2.55 | S483K
1.99 | N482E
3.43 | N482A

Reference: article PMC10244618
